Among the data in PMC4552821 (2015) are Kd values, retold here.

Where two headings read alike, the source gives them in different places.

Assay [1] concerns the target T1, kerateine (reduced hair keratin extract) (Homo sapiens, UniProt Q15323). In words: SPR.
Assay [2] deals with T1, kerateine (reduced hair keratin extract). Description: SPR. The source holds these as a separate data set. On the technique in general: Surface plasmon resonance follows binding to a sensor surface in real time, without labels.

B1: BMP-2 (protein)
chain: QAKHKQRKRLKSSCKRHPLYVDFSDVGWNDWIVAPPGYHAFYCHGECPFPLADHLNSTNHAIVQTLVNSVNSKIPKACCVPTELSAISMLYLDENEKVVLKNYQDMVVEGCGCR
On to B1, for which the Kd in assay [1] came out at 32 µM; in assay [2], 110 nM.

As usually defined, the Kd is the equilibrium constant for the complex coming apart. A higher Kd goes with lower affinity.
